# According to article PMC10200994 (2023):
# B1: STAT5B (unphosphorylated, wild-type), fluorophore fusion [not stated] / STAT5A (unphosphorylated, wild-type), fluorophore fusion [not stated] (parent complex)
# chain 1: MAVWIQAQQLQGEALHQMQALYGQHFPIEVRHYLSQWIESQAWDSVDLDNPQENIKATQLLEGLVQELQKKAEHQVGEDGFLLKIKLGHYATQLQNTYDRCPMELVRCIRHILYNEQRLVREANNGSSPAGSLADAMSQKHLQINQTFEELRLVTQDTENELKKLQQTQEYFIIQYQESLRIQAQFGPLAQLSPQERLSRETALQQKQVSLEAWLQREAQTLQQYRVELAEKHQKTLQLLRKQQTIILDDELIQWKRRQQLAGNGGPPEGSLDVLQSWCEKLAEIIWQNRQQIRRAEHLCQQLPIPGPVEEMLAEVNATITDIISALVTSTFIIEKQPPQVLKTQTKFAATVRLLVGGKLNVHMNPPQVKATIISEQQAKSLLKNENTRNDYSGEILNNCCVMEYHQATGTLSAHFRNMSLKRIKRSDRRGAESVTEEKFTILFESQFSVGGNELVFQVKTLSLPVVVIVHGSQDNNATATVLWDNAFAEPGRVPFAVPDKVLWPQLCEALNMKFKAEVQSNRGLTKENLVFLAQKLFNNSSSHLEDYSGLSVSWSQFNRENLPGRNYTFWQWFDGVMEVLKKHLKPHWNDGAILGFVNKQQAHDLLINKPDGTFLLRFSDSEIGGITIAWKFDSQERMFWNLMPFTTRDFSIRSLADRLGDLNYLIYVFPDRPKDEVYSKYYTPVPCESATAKAVDGYVKPQIKQVVPEFVNASADAGGGSATYMDQAPSPAVCPQAHYNMYPQNPDSVLDTDGDFDLEDTMDVARRVEELLGRPMDSQWIPHAQS
# chain 2: MAGWIQAQQLQGDALRQMQVLYGQHFPIEVRHYLAQWIESQPWDAIDLDNPQDRAQATQLLEGLVQELQKKAEHQVGEDGFLLKIKLGHYATQLQKTYDRCPLELVRCIRHILYNEQRLVREANNCSSPAGILVDAMSQKHLQINQTFEELRLVTQDTENELKKLQQTQEYFIIQYQESLRIQAQFAQLAQLSPQERLSRETALQQKQVSLEAWLQREAQTLQQYRVELAEKHQKTLQLLRKQQTIILDDELIQWKRRQQLAGNGGPPEGSLDVLQSWCEKLAEIIWQNRQQIRRAEHLCQQLPIPGPVEEMLAEVNATITDIISALVTSTFIIEKQPPQVLKTQTKFAATVRLLVGGKLNVHMNPPQVKATIISEQQAKSLLKNENTRNECSGEILNNCCVMEYHQATGTLSAHFRNMSLKRIKRADRRGAESVTEEKFTVLFESQFSVGSNELVFQVKTLSLPVVVIVHGSQDHNATATVLWDNAFAEPGRVPFAVPDKVLWPQLCEALNMKFKAEVQSNRGLTKENLVFLAQKLFNNSSSHLEDYSGLSVSWSQFNRENLPGWNYTFWQWFDGVMEVLKKHHKPHWNDGAILGFVNKQQAHDLLINKPDGTFLLRFSDSEIGGITIAWKFDSPERNLWNLKPFTTRDFSIRSLADRLGDLSYLIYVFPDRPKDEVFSKYYTPVLAKAVDGYVKPQIKQVVPEFVNASADAGGSSATYMDQAPSPAVCPQAPYNMYPQNPDHVLDQDGEFDLDETMDVARHVEELLRRPMDSLDSRLSPPAGLFTSARGSLS
# Variants of: B1
# Experiment: co-localization assay (quantitative fluorescence microscopy in HeLa cells); bait S5A-NES, test S5B-L82A; 27 cells (parent 17 cells); parent: 0.97
row,screen value,Variant
1,0.65,chain 1 L82A
